Assay results: article PMC4224745, “Modulation, Bioinformatic Screening, and Assessment of Small Molecular Peptides Targeting the Vascular Endothelial Growth Factor Receptor” (Cell Biochemistry and Biophysics, 2014)
No end group written: not given here.

Experiments:
[1] = test system: A549 cells; experiment: Fluorescence microscopy of rhodamine-conjugated peptides binding to A549 cells; format: cell-based, human; details: rhodamine-conjugated peptides 45 µmol/L, fixed A549 cells, 2 h at 4 °C (method) or 6 h (results)
Procedure: The highest affinity peptides, NO.15 (QKRKRKKSRKKH) and NO.17 (RKRKRKKSRYIVLS), were conjugated with a fluorochrome, and fluorescence microscopy was used to observe binding to A549 cells as follows. A549 cells were plated on coverslips and grown overnight. The cells were then washed three times with PBS and fixed with 4 % paraformaldehyde for 15 min at room temperature. The cells were incubated at 37 °C for 30 min with 2 % BSA to block nonspecific binding, and subsequently washed three times with PBS. Rhodamine-conjugated peptides (45 µmol/L) were added and incubated with the cells for 2 h at 4 °C. After three washes with PBS, fluorescence microscopy (maximum absorption wavelength of 552 nm) was used to observe cellular staining. Unconjugated rhodamine was used as staining control.

[2] = test system: VEGFR; experiment: In vitro receptor competition binding assay with 125I-VEGF165 on A549 cells; set-up: species or system human; details: for IC50: A549 cells, peptide 0–6,500 nmol/L, 30 min at 4 °C, then 125I-VEGF165 0.37 μg/L for 2 h at 4 °C, γ-counter, duplicate wells, read-out: IC50, competitive VEGFR binding with 125I-VEGF; for Fold increase in affinity for VEGFR relative to VEGF125–136: from the IC50 values of the 125I-VEGF competition on A549 cells
Procedure: A549 cells were cultured in 24-well culture plates at 3 × 10^4 cells/well in duplicate for each treatment. Cultures were maintained at 37 °C in a 5 % CO2 incubator. After 24 h, the culture supernatant was discarded, and cells were washed in PBS, followed by the addition of serum-free culture medium (Hyclone, Logan, UT) before performing an in vitro competitive-binding assay. To each well, VEGF125–136 or optimized peptides were added at the following concentrations: 0, 1.3, 6.5, 32.5, 65, 650, and 6,500 nmol/L. After a 30-min incubation period at 4 °C, 1.85 kBq ^125I-VEGF165 (PerkinElmer,Boston, MA) at a final concentration of 0.37 μg/L was added to each well, and the plates were further incubated for another 2 h at 4 °C. The culture supernatant was discarded, and the cells were washed twice with pre-cooled (4 °C) PBS containing 0.1 % BSA to remove unbound ^125I-VEGF165. The cells were then trypsin digested and quickly filtered through glass fiber filter paper using a multi-channel microfluidic device. Radioactive counts (cpm) on the filter paper were determined using a γ-counter (Chongqing Optical & Electrical Instrument). Peptide competition binding curves were plotted, and IC50 values for each peptide were calculated using SPSS13.0 statistics software.

[3] = molecular target: vascular endothelial growth factor receptor (VEGFR) (human (endogenous in A549), UniProt P17948 27-1338); experiment: radioligand binding; competition on A549 cells in 24-well plates, serum-free medium: peptide at 0-6,500 nmol/L for 30 min at 4 °C, then 1.85 kBq 125I-VEGF165 (0.37 μg/L) for 2 h at 4 °C; washed, trypsinised, filtered, γ-counted; IC50 by SPSS13.0; details: one partner purified
vascular endothelial growth factor receptor (VEGFR), sequence (P17948 27-1338): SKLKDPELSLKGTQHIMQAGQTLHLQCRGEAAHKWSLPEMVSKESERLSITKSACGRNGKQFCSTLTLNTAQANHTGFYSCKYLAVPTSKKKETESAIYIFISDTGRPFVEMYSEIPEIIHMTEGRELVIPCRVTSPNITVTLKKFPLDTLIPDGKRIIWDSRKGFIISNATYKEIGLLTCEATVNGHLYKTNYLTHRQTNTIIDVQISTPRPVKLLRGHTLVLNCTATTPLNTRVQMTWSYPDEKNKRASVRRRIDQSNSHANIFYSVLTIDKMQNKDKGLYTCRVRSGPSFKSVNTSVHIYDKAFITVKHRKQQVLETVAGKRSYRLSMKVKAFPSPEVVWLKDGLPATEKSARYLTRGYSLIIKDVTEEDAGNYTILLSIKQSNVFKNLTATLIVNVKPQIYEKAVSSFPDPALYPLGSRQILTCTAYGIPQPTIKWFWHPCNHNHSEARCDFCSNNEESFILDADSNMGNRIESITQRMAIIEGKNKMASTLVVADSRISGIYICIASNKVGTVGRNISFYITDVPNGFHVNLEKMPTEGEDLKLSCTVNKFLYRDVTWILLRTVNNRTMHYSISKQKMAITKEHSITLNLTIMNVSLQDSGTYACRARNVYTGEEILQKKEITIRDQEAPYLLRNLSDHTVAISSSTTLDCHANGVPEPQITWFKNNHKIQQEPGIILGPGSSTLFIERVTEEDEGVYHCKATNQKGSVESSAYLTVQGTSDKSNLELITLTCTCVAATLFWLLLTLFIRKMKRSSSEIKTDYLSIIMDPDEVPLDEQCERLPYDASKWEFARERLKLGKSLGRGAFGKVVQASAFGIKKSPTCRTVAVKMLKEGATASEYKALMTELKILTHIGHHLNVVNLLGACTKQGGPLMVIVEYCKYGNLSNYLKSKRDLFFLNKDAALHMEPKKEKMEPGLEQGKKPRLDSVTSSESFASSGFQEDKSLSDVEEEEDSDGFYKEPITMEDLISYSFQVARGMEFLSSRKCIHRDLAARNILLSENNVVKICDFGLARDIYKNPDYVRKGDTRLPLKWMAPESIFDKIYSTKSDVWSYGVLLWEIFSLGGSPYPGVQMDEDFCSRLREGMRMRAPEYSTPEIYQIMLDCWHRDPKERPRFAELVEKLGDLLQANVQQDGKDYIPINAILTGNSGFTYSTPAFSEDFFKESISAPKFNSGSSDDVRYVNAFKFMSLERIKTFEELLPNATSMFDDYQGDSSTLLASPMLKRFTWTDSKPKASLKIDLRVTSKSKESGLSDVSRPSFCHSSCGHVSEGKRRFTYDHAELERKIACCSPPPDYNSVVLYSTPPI

Row | Molecule | IC50 [3] [µM] | further results
1 | QKRKRKKSRKKH [compound 15] | – | Binding sites / fluorescent staining on A549 cells [1]: plasma membrane and perinuclear cytoplasm; IC50 [2]: 0.08 ± 0.007 µM; Fold increase in affinity for VEGFR relative to VEGF125–136 ([2]; listed as QKRKRKKSRKKH): 6 fold and ≈ 6 fold
2 | RKRKRKKSRYIVLS [compound 17] | – | Binding sites / fluorescent staining on A549 cells [1]: plasma membrane and perinuclear cytoplasm; IC50 [2]: 0.185 ± 0.014 µM; Fold increase in affinity for VEGFR relative to VEGF125–136 [2]: 2.5 fold
3 | rhodamine [unconjugated rhodamine, reference compound] | – | Binding sites / fluorescent staining on A549 cells [1]: did not result significant levels of fluorescent staining
4 | QKRKRKKSRYKY | 0.28 ± 0.013 | –
5 | IVFKRKRKKSRYLS | 0.637 ± 0.025 | –
6 | QFRKRKKSRYLS | 0.694 ± 0.029 | –
7 | FFRKRKKSRYKS | 0.188 ± 0.025 | –
8 | QKRKRKKSRYKS (also called Control) [VEGF_(125–136)] | 0.464 ± 0.012 | –
9 | RKRKRKKSRKKH | 0.283 ± 0.009 | –
10 | QKRKRKKSRYPLS | 0.542 ± 0.016 | –
11 | RKRKRKKSRYIVLS (also called NO.17) | 0.185 ± 0.014 | –
12 | QKRKRKKSRYKK | 0.571 ± 0.04 | –
13 | QFRKRKKSRYPS | 4.21 ± 0.076 | –
14 | QKRKRKKSRKKH (also called NO.15) | 0.08 ± 0.007 | –
15 | QHKRKRKKSRIVL | 0.424 ± 0.037 | –
16 | QKRKRKKSRYPK | 0.602 ± 0.019 | –
17 | QFRKRKKSRYKS | 0.665 ± 0.038 | –
18 | QFRKRKKSRWKS | 0.092 ± 0.009 | –
19 | KKRKRKKSRKRK | 0.315 ± 0.011 | –
20 | QFRKRKKSRYKF | 0.323 ± 0.017 | –
21 | KFRKRKKSRYIV | 0.273 ± 0.033 | –
22 | QKRKRKKSRYRK | 0.405 ± 0.02 | –
23 | QFRKRKKSRYKH | 0.252 ± 0.016 | –
24 | QFRKRKKSRYPK | 0.273 ± 0.019 | –
